The values that follow come from patent US20240043534A1.

Changes are numbered by the printed parent chain.

In test [1] the target is Fab^H (Herceptin Fab scaffold with wt human kappa Lc; Lc aa 123-127 EQLKS). Briefly: SPR (preliminary results), Protein G variant against Fab scaffold.
Test [2] deals with “Λ” Fab scaffold (4D5 scaffold with SEELQANK in the Lc region). Described as above.
The target in test [3] is Fab with CK (kappa) light chain constant domain. Put plainly: ELISA.
The target in test [4] is Fab^H(Her2)-linker-GA1 fusion (13 residue linker). Briefly: cell-based or functional assay.
For test [5], the target named is yeast histone chaperone protein Asf1 (Anti-silencing factor 1) (yeast) (UniProt P32447). Briefly: cell-based or functional assay.
Test [6] concerns the target N-terminal methyltransferase domain of the Zika virus bifunctional NS5 enzyme (MT ZIKV) (Zika virus). Put plainly: cell-based or functional assay.
The target is the same in test [7]. Put plainly: SPR, Fab as analyte on His-tag-immobilized antigen. For orientation: SPR reads the build-up and loss of mass on a sensor chip optically.
The target of test [8] is FabHS (human 4D5 scaffold with residues PEELRTNK replacing amino acids corresponding to 15-22 of SEQ ID NO:1). Put plainly: protein ELISA. A general note: An ELISA detects its analyte on a solid surface through an enzyme-linked reagent.
Sequence of FabHS (human 4D5 scaffold with residues PEELRTNK replacing amino acids corresponding to 15-22 of SEQ ID NO:1) (light, as listed by the source): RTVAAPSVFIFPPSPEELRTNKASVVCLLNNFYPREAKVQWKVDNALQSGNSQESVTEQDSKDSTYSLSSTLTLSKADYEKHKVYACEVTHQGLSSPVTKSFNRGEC

Sequence of yeast histone chaperone protein Asf1 (Anti-silencing factor 1) (yeast) (P32447 1-158 limits assumed): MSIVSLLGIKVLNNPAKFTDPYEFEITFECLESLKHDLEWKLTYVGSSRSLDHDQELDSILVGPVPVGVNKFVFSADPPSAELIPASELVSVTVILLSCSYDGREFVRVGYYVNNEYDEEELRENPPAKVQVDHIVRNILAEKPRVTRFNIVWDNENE
Sequence of “Λ” Fab scaffold (4D5 scaffold with SEELQANK in the Lc region) (light, as listed by the source): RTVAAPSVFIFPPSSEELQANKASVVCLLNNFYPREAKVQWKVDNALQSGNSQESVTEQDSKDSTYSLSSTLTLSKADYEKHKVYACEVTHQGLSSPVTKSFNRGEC

B1: Protein G D (designed binder)
chain: TPAVTTYKLVINGRTLSGYTTTTAVDAATAEKVFKQIDMVSSVDGEWTYDDATKTFTVTEKPEKL
The term Kd denotes the equilibrium constant for the complex coming apart. A low value points to a tighter complex. Turning to B1, the Kd in test [1] worked out at 15 nM; in test [2] it was 50 nM.

B2: Protein-G-A1 (SEQ ID NO:27) (designed binder)
chain: MKGETTTEAVDAATAEKVFKQYANDNGVDGEWTYDDATKTFTVTEKPEVIDASELTPAVTTYKLVINGRTLSGYTTTTAVDAATAEKVFKQYAYVHEVDGEWTYDDATKTFTVTEKPEVIDASELTPAVTTYKLVINGRTLSGETTTKAVDAETAEKAFKQYANDNGVDGVWTYDDATKTFTVTE
As to B2, in test [3], the EC50 ratio (preference for CK over Cλ) was over 5000.

B3: hOKT3(S)_LRT (Fab, V domains shown)
VH: EVQLVESGGGLVQPGGSLRLSCAASGYTFTRYTMHWVRQAPGKGLEWIGYINPSRGYTNYNQKFKDKATISTDKSKNTAYLQMNSLRAEDTAVYYCARYYDDHYSLDYWGQGTLVTVSS
VL: DIQMTQSPSSLSASVGDRVTITCSASSSVSYMNWYQQKPGKAPKRWIYDTSKLASGVPSRFSGSGSGTDYTLTISSLQPEDFATYYCQQWSSNPFTFGQGTKVEIKR
For the molecule B3, the redirected tumor-cell killing (LDH release), PBMC-SKBR3 co-cultures, bi-Fab at 50 nM in test [4] was under 70%.

B4: E11 Asf1 LRT-Fab (Fab, V domains shown)
VH: EVQLVESGGGLVQPGGSLRLSCAASGFNISYSSIHWVRQAPGKGLEWVASISSYYGSTYYADSVKGRFTISADTSKNTAYLQMNSLRAEDTAVYYCARSRGQASWDYWGQGTLVTVSS
VL: DIQMTQSPSSLSASVGDRVTITCRASQSVSSAVAWYQQKPGKAPKLLIYSASSLYSGVPSRFSGSRSGTDFTLTISSLQPEDFATYYCQQSSDDPITFGQGTKVEIKR
Turning to B4, the β-lactamase (BL) split-enzyme complementation, fluorescent signal in test [5] was under 10 fold.

B5: Z2C4 ZIKV LRT-Fab (Fab, V domains shown)
VH: EVQLVESGGGLVQPGGSLRLSCAASGFNVYYSSIHWVRQAPGKGLEWVAYIYPSSGSTYYADSVKGRFTISADTSKNTAYLQMNSLRAEDTAVYYCARSWSPYGMDYWGQGTLVTVSS
VL: B4 VL with S91W, S92Y, D94S, P95L
For B5, the β-lactamase (BL) split-enzyme complementation, limit of antigen detection in test [6] was found to be 30 nM. The same molecule gave a Kd in test [7] of 0.7 nM.

B6: Z2G6 ZIKV LRT-Fab (Fab, V domains shown)
VH: EVQLVESGGGLVQPGGSLRLSCAASGFNVYYYYIHWVRQAPGKGLEWVASIYSYSGYTYYADSVKGRFTISADTSKNTAYLQMNSLRAEDTAVYYCAREGVWWEDEFYPGLDYWGQGTLVTVSS
VL: B4 VL with S92W, D93S, D94S, P95L, I96F
As a reminder, the koff is the rate constant with which the complex falls apart. Low readings indicate a long-lived complex, high ones a short-lived complex. As to B6, in test [6], the β-lactamase (BL) split-enzyme complementation, limit of antigen detection came to 30 nM. In test [7], this molecule displayed a Kd of 1.7 nM and an off-rate constant (koff) of 9.2e-05 s⁻¹.

B7: Protein-G-HS C6 (designed binder)
chain: MKGETTTEAVDAATAEKVFKQYANDNGVDGEWTYDDATKTFTVTEKPEVIDASELTPAVTTYKLVINGKTLKGETTTEAVDAATAEKVFKQYANDNGVDGEWTYDDATKTFTVTEKPEVIDASELTPAVTTYKLVINGRTLSGETTTKAVDAETAEKAFKQYSRPHVVDGVWTYDDATKTFTVTE
Usually IC50 stands for the concentration that inhibits the measured activity by half. The low end stands for greater potency, the high end for weaker potency. In test [8], B7 registered an IC50 of 8 nM. This counts as single-digit nanomolar.

B8: Protein-G-HS C7 (designed binder)
chain: B7 chain with S163A, R164Y, P165G, H166A
In test [8], B8 gave an IC50 of 100 nM.
